Test results from publication PMC4858679, “PCNA is involved in the EndoQ-mediated DNA repair process in Thermococcales” (Scientific Reports, 2016).

B1: Proliferating cell nuclear antigen from Pyrococcus furiosus (natural protein, UniProt O73947 1-249, looked up)
chain: MPFEIVFEGAKEFAQLIDTASKLIDEAAFKVTEDGISMRAMDPSRVVLIDLNLPSSIFSKYEVVEPETIGVNMDHLKKILKRGKAKDTLILKKGEENFLEITIQGTATRTFRVPLIDVEEMEVDLPELPFTAKVVVLGEVLKDAVKDASLVSDSIKFIARENEFIMKAEGETQEVEIKLTLEDEGLLDIEVQEETKSAYGVSYLSDMVKGLGKADEVTIKFGNEMPMQMEYYIRDEGRLTFLLAPRVEE
B2: Proliferating cell nuclear antigen 1 from Thermococcus kodakarensis, wild type (natural protein, UniProt Q5JF32 1-249, looked up)
chain: MPFEVVFDGAKEFADLIATASNLIDEAAFKFTEEGISMRAMDPSRVVLIDLNLPESIFSKYEVEEPETIGINMDQFKKILKRGKAKDTLILRKGDENFLEITFEGTAKRTFRLPLIDVEELELELPELPFTAKVVLLGEVLKEGIKDASLVSDAIKFIAKENEFTMKAEGETNEVEIRLTLEDEGLLDLEVEEETKSAYGIRYLSDMVKGIGKADEVILRFGNEMPLQMEYMIRDEGRLTFLLAPRVEE
notes: PCNA1 (DNA polymerase sliding clamp 1), Thermococcus kodakarensis, locus TK0535; printed MW 28239.4; also called TkoPCNA1; TkoPCNA1^WT; source: E. coli, purified (as described previously)

Legend:
[1] = biological target: T1, Endonuclease Q from Pyrococcus furiosus (Pyrococcus furiosus (endogenous in P. …, UniProt Q8U0N5 1-424)); assay: cell-based or functional assay
T1 sequence (looked up): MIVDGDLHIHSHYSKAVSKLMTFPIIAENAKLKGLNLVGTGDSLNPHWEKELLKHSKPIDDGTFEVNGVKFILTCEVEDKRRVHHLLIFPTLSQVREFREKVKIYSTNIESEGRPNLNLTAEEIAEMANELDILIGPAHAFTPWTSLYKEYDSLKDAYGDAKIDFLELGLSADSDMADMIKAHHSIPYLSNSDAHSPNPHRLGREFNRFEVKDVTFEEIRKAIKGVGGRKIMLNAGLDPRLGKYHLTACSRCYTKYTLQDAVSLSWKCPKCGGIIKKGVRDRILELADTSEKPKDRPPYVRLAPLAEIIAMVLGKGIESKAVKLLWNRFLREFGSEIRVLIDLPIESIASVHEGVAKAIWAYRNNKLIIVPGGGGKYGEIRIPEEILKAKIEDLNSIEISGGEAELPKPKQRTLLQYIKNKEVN

[2] = biological target: T2, Endonuclease Q from Thermococcus kodakarensis, wild type (Thermococcus kodakarensis, UniProt Q5JI33 1-421); assay: SPR; Biacore J; TkoPCNA1 immobilised on a CM5 chip, TkoEndoQ injected (12-800 nM, 120 s); 25 °C; 10 mM HEPES pH 7.4, 0.4 M NaCl, 0.005% Tween20; 1:1 reaction model; apparent KD; details: both partners purified
T2 construct: Endonuclease Q (EndoQ), Thermococcus kodakarensis KOD1, locus TK0887, GenBank BAD85076; printed MW 48080.3; the C-terminal truncation removes residues 409-421, so the chain ends at 421; no tag is named; also called TkoEndoQ; TkoEndoQ^WT; source: E. coli, purified (as described previously)
T2 sequence (looked up): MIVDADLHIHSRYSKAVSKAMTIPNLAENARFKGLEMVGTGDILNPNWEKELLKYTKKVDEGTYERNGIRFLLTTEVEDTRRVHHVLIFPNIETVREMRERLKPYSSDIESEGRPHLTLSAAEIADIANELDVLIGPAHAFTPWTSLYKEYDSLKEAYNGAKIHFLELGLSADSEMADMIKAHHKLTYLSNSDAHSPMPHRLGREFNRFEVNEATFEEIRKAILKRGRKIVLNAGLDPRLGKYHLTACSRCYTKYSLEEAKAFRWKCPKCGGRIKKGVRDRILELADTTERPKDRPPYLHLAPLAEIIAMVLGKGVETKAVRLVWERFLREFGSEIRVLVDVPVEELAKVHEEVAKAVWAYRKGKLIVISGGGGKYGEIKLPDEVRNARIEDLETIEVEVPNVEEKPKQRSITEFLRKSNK

[3] = biological target: the molecule itself; assay: SEC; gel filtration of purified TkoPCNA1 proteins; 160 μM

Row | Binder | stimulation of the endonuclease activity of purified PfuEndoQ on dI-containing DNA by purified PfuPCNA (0.18 M NaCl) [1] | Kd [2] | binding result [3]
1 | B1 | 6 to 7 fold |  | 
2 | B2 |  | 55 nM | binds
